This is an account of results in article PMC7755780, “Tetrachloroethene respiration in Sulfurospirillum species is regulated by a two‐component system as unraveled by comparative genomics, transcriptomics, and regulator binding studies”.

Series [1] concerns the target T1, RR2 (PceP), OmpR-family response regulator of TCS2 (Sulfurospirillum halorespirans (DSM 13726?)) (UniProt A0A1D7TJV3).
T1 sequence: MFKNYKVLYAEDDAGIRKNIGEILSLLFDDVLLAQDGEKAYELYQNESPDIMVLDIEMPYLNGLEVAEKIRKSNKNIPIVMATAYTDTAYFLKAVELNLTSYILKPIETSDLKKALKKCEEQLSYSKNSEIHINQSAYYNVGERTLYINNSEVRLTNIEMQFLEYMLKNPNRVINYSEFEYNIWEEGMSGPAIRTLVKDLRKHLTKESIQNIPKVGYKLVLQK
The experiment in a line: EMSA. The conditions noted are these: EMSA: 10 mM HEPES pH 7.6, 2 mM MgCl2, 200 mM KCl, 0.1 mM EDTA, 5 mM DTT, 10% glycerol, 50 ug/ul Ficoll 70, 250 ng poly(dI/dC), 2.5 pmol DNA in 15 ul, room …. (In general: In EMSA bound probe runs differently from free probe, usually more slowly.)

Series [2] deals with T2, RR2 (PceP), OmpR-family response regulator of TCS2 (Sulfurospirillum halorespirans, UniProt A0A1D7TJV3 1-223).
T2 sequence: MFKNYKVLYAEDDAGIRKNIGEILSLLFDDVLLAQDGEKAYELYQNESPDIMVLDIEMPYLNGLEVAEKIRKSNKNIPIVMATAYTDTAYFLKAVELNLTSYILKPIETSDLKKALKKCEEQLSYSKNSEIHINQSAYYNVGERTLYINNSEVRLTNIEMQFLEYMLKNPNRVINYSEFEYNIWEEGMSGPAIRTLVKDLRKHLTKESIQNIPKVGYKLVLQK
Put plainly: EMSA; minimum binding fragment; 30 or 60 pmol RR2; EMSA: 10 mM HEPES pH 7.6, 2 mM MgCl2, 200 mM KCl, 0.1 mM EDTA, 5 mM DTT, 10% glycerol, 50 ug/ul Ficoll 70, 250 ng poly(dI/dC), 2.5 pmol DNA in 15 ul, room temperature 20 min; gel with 30% triethylene glycol in 1x TAE. To be noted: protein: recombinant; tags: Twin-Strep; chain copies: 2; label: 6-FAM; blunt.

For “ATTGTCTGATATATTGACAAAATCTTTATAAAATCTCCAAAAATATAAAAAAAGAAAAGTATTTACTTATTACTTCGTAAATATTATTAACTTTCATTATTTTAAAATTAAAATCTATATCTTTCCTATAACAAAGCTATAACTTTTGTATATCATTCTTAAAATGTGAAATTAATTCATAAACACATTAAAAAATAAATAACTGTACTTGGGGTTATTTATAAAAGGTTACAAGAAGGTTTGAATACCACTGTGTAAGTTGTTACTCTTGGTATTTTTTAAGGAGGAAGTATG (double strand) [ppceAB promoter]”, in series [1], the binding result is listed as “binds”. On the same count and under the same terms, then “CATATTCTATCCTTATTTTTAAAATATTTAATTATTATAAATGTAAGTATAGAAAATAATTATAGGTTGTTTGTAGATAATAATAATTTTTCTACTAATTCTTTAATCATTAAATAATATTCAGTAGTATTTCTATCTATCTCGATGCTCAAAAAAACACCATCAATTCTATCAATATCTACATCTATAACTTTTTCTTAA (double strand) [p1494 (ahpD-like gene promoter)]”, with “binds more weakly”. With “CATGTGTGAACCTATCCTATAGTTTATAACTATGATTCTATCAGATATTTTGTTAAAAATTAACTTAAAAGAGTAAAAATTATCTATTTAATAGTTACCCTATATTTCACCTATAAGTTACCTATAAATATTCATAAAATTCAAGGTTCTCTCTTTATTGCACACAAAGTTACTACAAGTTTTATGTACT (double strand) [pTCS2/SHALO_1504 intergenic region (pTCS2)]”, in series [1], the binding entry is “binds”. As for “CATTAAATTCTTAATTACATCATTATATCACAAAAAAGGCAAGGAATGATAAAAAAGTTTTATCATCTAAGTGAAGTATTAGACAATATCATATAATTAAATAGTTAAAGTAGTATAAATAAACCGTAAAATATGCAAATAACTGCATTTATAAGCTAATATTAATAAAATATACAA (double strand) [p1552 promoter (phage CI repressor superfamily gene)]”, the binding entry in series [1] is “no binding”. Still for that read-out and setting: then “CTGCATAGAGTATTGTATAAGAAGCGAGCATGTTAAATCCCTGAAATTTTATGAATAATGTACGTATTATAAAAAAAGAAATATAGAACTTGTAGATAAAAAATATTTTCCTTCTATTTTAGTTATACAACGGTTGCATAAGTTTTAAATACAATTTTCATAATAAGTCAGATGTTAAATGGTTGTACTTGGGATCATTTAATTAAAGGTTACAAGAAGGTTTAAAATCATTATCATGATTGTATGGTAGATGATTTTTTAAGGAGTAAATATG (double strand) [prdhAB promoter]”, with “binds more weakly”; and “TCTATCAGATATTTTGTTAAAAATTAACTTAAAAGAGTAAAAATTATCTATTTAATAGTTACCCTATATTTCACCTATAAGTTAC (double strand) [pTCS2/SHALO_1504 f9 (lacks repeat closest to SHALO_1504 TSS)]”, with “no binding”; and “TTCACCTATAAGTTACCTATAAATATTCATAAAATTCAAGGTTCTCTCTTTATTGCACACAAAGTTACTACAAGTTTTATGTACT (double strand) [pTCS2/SHALO_1504 f2 (first CCTATA incomplete)]”, with “binds more weakly”.

B1: ppceAB minimum 70-bp fragment (dsDNA)
DNA 1: ATTATTTTAAAATTAAAATCTATATCTTTCCTATAACAAAGCTATAACTTTTGTATATCATTCTTAAAAT
DNA 2: ATTTTAAGAATGATATACAAAAGTTATAGCTTTGTTATAGGAAAGATATAGATTTTAATTTTAAAATAAT
With B1, the binding result in series [2] is “binds”.
